Data as given in doi:10.1101/2021.09.30.462564 (bioRxiv, 2021).

Molecular target: the molecule itself
Assay: crystal structure; His-SUMO tagged P. shigelloides NagK crystallised by the microbatch method; X-ray data at 100 K

B1: N-acetylglucosamine kinase (NagK) from Plesiomonas shigelloides (enzyme)
chain: MYYGFDIGGTKIEFGAFDADLVRVARERVATPTESYAAFLDAIVTLVNNADAEFGVKGTVGIGIPGIADVETGKLLTSNIPAAMGHTLQRDLEERLQRPVKIENDANCFALSEAWDEDLRGEPSVLGLILGTGVGGGLIFNGKVHSGRANIAGEIGHTRLPYDALKLLGMENAPIFPCGCKNSGCIDNYLSGRGFEQLYDHYFSEKLSAPEIIAHYEQGERRAVQHVERFMELLAICLANIFTCLDPHVVVLGGGLSNFELIYQELPKRLPAHLLHVAKLPKIIKARHGDAGGVRGAAFLNL
notes: N-acetylglucosamine kinase NagK of Plesiomonas shigelloides, codon optimised gene in pOPINS3C; His-SUMO tagged construct (pOPINS3C) used for crystallisation; no cleavage of the tags is described; also called PsNagK; P. shigelloides NagK; source: E. coli BL21 (DE3), purified (HisTrap, Superdex 200 size exclusion); not shown: polyhistidine, N-terminal, kept; SUMO, N-terminal, kept
- binding result: binds
